This series can be described thus: label from the status in PepcDB records.
In the case of “MPDLPLAPEALDLSPAFLEVAACPACHSRFALDFDSGELVCSSPSCGLAFLVRDGVPDLRLDAARKRETGQGVTAEDTEAFEPTHRHEMRPQ”, the protein production result is listed as “failed”. Next, “MPDNEVDLLFAQLSPEDLIEWSDYLPESFTDRALAQMGERQRQRFELYDQYSENEIGRYTDHQMLVLSDKATVAQAQRFFRRIELDCNDNLFIVDEADKYLGTVRRYDIFKHEPHEPLISLLSEDSRALTANTTLLDAAEAIEHSREIELPVIDDAGELIGRVTLRAATALVREHYEAQLMATAGMDESDDLFAPILKGAQRRAV”: “not failed”; “MPDSPFVSVVVPVYNDPEGVKDTLHALVDQRDAPAFEVRVVDNDSTDETMQVIEAFAADHPEIYCHTETEIQSSYAARNTGIEHAGGDVIVFLDADVVVERTCLRDISRTFEGSDVDYVGCNVQMYNPGETDTFWTKYDLAMGLPVEHYLRRKRFAPTCALAVRREVIEAVGTFDDELVSGGDKEFGNRVSEAGFRMGFAEGIVAKHPARTSLKRNIQKSTRIGKGQVQLWAGYGLAAHPVSYTRYLPPDPQRVRNRRDAQFDLVSIYLAEILLKYVQSATVLYLYLKRLLKRVSGDTT”: “failed”; “MPEFTNNPVAECDTVFSEKDGKKIVDFIIYPAKNGDQWVGTAVEAKSMGFGGELKVLVGFDAEGKIYNYSLLSHAETPGLGSKAADWFKEGNKGSIKGMNPGEQPLTVSKDGGQVDAITASTITSRAFLNAVNAAYGAYKGDGGANGTTGASQKAVQKSETAIVDSVVIKLEHHHHHH”: “not failed”. As for “MPEIEIAAGSGDNNDALFGKYELGKLLGCGAFAKVFHARDRRTGQSVAVKILNKKKLLTNPALANNIKREISIMRRLSHPNIVKLHEVMATKSKIFFAMEFVKGGELFNKISKHGRLSEDLSRRYFQQLISAVGYCHARGVYHRDLKPENLLIDENGNLKVSDFGLSALTDQIRPDGLLHTLCGTPAYVAPEILSKKGYEGAKVDVWSCGIVLFVLVAGYLPFNDPNVMNMYKKIYKGEYRFPRWMSPDLKRFVSRLLDINPETRITIDEILKDPWFVRGGFKQIKFHDDEIEDQKVESSLEAVKSLNAFDLISYSSGLDLSGLFAGCSNSSGESERFLSEKSPEMLAEEVEGFAREENLRMKKKKEEEYGFEMEGQNGKFGIGICISRLNDLLVVVEARRRGGDGDCYKEMWNGKLRVQLIRVCDQTSSTNAAI”, the protein production entry is on record as “failed”.

On to “MPEMADVMQTQAGDAGAFRHFDLSRVPTPCFVVDEVAIERNLKILRDISDRSGAHVLSALKAFSMFTLAPLVRQYLGGTCASGIYEARLGREEYGGEVATFCAGYKEQDIDEILSLSNHIIFNSPAQKDRFLSRAQAAGVQVGLRINPEHSEGEIAKYDPCAPCSRLGTPVSLLTPETLKGVDGLHMHTLCEQGFEPLLRTWAAVEPKLAPYLPGLKWLNFGGGHHITRADYDRDALIDFLKSLRARHGLDVYLEPGEAVALDAGILVGEILDLPSNGMDLAITDISATCHMPDVIEAPYRPALMDEADSGHTYRLGGPSCLAGDVIGDYTWDQPLTIGQRFAFLDQAHYSMVKTNTFNGVPLPTIALWNSKTDALRIVRQFDYSDFKDRLS”, for which the protein production entry is reported as “not failed”. Regarding “MPEVSFIICTRNRVAVLEACLKSVQAACRAHAGFAAELVVVDNGSSDRTAERLASIAAMSDIPFTPVSEPRRGLAAARNAGLRRARGRVLVFVDDDCAVHCDYLRDLERHYASGEQGLIRGGRVELGDPRDLPFTIKRSRVCERLTPDIHPGGFVLGCNMTMHRDVAARIGDFDERFGAGGPLRSAEDTDYLVRAVLLGIPVEYVPDMTIFHHHGRRDRKAIEKLHRDYSLGNGGLCLKHIRHAPWLLRHFYWAARGALRELAGGPAFDRDLDLSHRPIVGMNVLGAARYALLLLARRPQAEPARQDQQANAEAPLLEHHHHHH”, the protein production entry is on record as “failed”. Next, “MPEWAAFVGLTGFLLTALLGLARLSQGAVRSDGGVSSTVDGVSMADRDPTIPRFETQRAAAQRQQMRDTLAPSDVSTGALLANVAFTQGLFGVLLVAGAFYFEIPASAFGVTSDALSTGLPAVAIGIGAGIGFWVGNEGAAALADGFGVTFDESLRELLAPDSPGGWVILLGGVLPVIAIVEELLFRAAAIGVPVAGLNAPAWAMAIVASVAFALGHGAQGRVGIVVTGTLGLALAGLFIATNSLLAVVVAHYLVNALELLVHEGLGVDRLWA”: “failed”; “MPFEDALAIVNAAMQTLLGRQLSDIETLIFEGSWQSKTYPQIADGAGYSINYLTTDVGPKFWKVLSQALGEPVNKKNFKAAIRRYCVVQSGGEWESEGFQTQLPSYPSILSWGEAPDVSQFYGREEEQALLQRWIEAERCRLIAVLGMGGIDKSTLTTKVVQGFVQGDGVEEWEGDNINIKKIQNPLQEGQSPTKFKIQHLPSSPATPFTHIIWRSLRNAPPLEALLAELIDLLSEHQETVGDRARLLHWLRKTRCLIVLDNLETILQAGDHAGYYRDGYGDYGELIQLLGETPHQSCVLLTSREKPAEIAVLEGLDGNTRTLQLSGSVATAIAIIQQKGLQGTEEQQQVLCDRYSYNPLALKIVSTTIQDLFDGDISAFLTEDAVIFNSIRRLLDAQFQRLTELEQAIIIWLAINRDWTAIAELAADLVPPVPKVKLLEALESLRWRGLIETQDKRYTLQPVVMEYVTERFIEQINQELEMGQPQYWQQFALLKLTVRDHITETQRRLIVHSTAAQFGDCFPSPELQRQQLQTVLTAIRESVIAGYGVGNLINLSNALDLDLAGFDFSQLTIRQADLRHRLFQHLNFAQANFRDSAFKQTFGSIFSLSYSPAGDYLITGDDVGVVRLWKSAEMQPMQSYPLHRSYVWDLRPSADGRWLATCSEDQTVKITNLATGQLQATLVVAPTIARAIVWIGPDCLAIGGIDGHIRLWYPFTEQAPVLVTAHTDIVNSLSWDANSNLLASSSSDSTVKLWDVETGICHRIWREAVPVRWATWSPDGHTLAISREDGGIVLWNPHSDQAPRYLNGHPETVWSLDWNPDGAWLASSSHDATVRLWDVVTGRCRRILRSHQNWVWYARWHPHQPRIISGGHDGTLKLWDTGTGQCLKSLTGHMANIRAIAPAPDGQTLALGCDDTIVRLCGADSPPSFIHAFGHSHLISDLCWNPTGENLASASHDCNLRVWQRSPLRCTQVLKGHTNWVWSVDWHPTQDLLASGSVDSTIRLWYPTQSTPVKTLMAQTSWILSVRWHPTGRWLASAAGDFTIGLWNSKTWECTHLLTGHTHWIWCLAWSPNGQYLASGGYDNTVFIWKVEKEVTSLRTLEHPTILSAIAWHPDGELLATSCHDGNIRLWHWQTGQCVTRISGHQGEILTLKFSPDGKRLYSSSQDETWKTWDWQTGTCLASDRLDRPYEGMNISEVRGLTEVRKAALRALGATEGSQPPGDLVRWLRKTEQGRKL”: “failed”; “MPFERFVQTGRIAKASAGPLKGRLVAIVDVIDQNRVLVDGPLTGVPRQEYRLNNLHLTKYRIKFPYTAPTRIVRKAWTESDLKAQWKVSPWSVKAQNICKRSSLNDFDRFKLRYAKRQRNKLLTIAFNTLKKRTKADGTPRVLKKDRRERLRAEKAKGGKKAAAKK”: “failed”. Next, “MPFETPDLLGPSEPVPDRLSANEFLLRPLTPTDAEIDYEAVTESGDRLHGIFGPDDEWPTGLTPEQNRIDVCWHYREHQRRDAFTYGVFDPAETTELGCLYVQPTRIEGYDAAVYYWTAAAAVERGLADEIETACREWVATEWPFGRVAYPGRDVSWQAVPAAGTEGD”: “failed”; “MPFLFPKFWVMSAPHDTHVSRRLRRGLASACAVVTAIAAFSPAHAAPSPNKAGPMSGSTGRTTVGQLLTPAGQLTTLGDLPLNEALSPDGRYLIVSNNGQGTQSLQVIKTATGKVVQTIPYKSPESLYMGLAFSPDGTHLFASAAGNHKIRTYHFDCGKLVETSAIQMPVVSPKLTKVNLYPAGLAVTNDSKRLVVADQLADAVSVIDLATNKIQTTHIGHRPVWVTLSKDSTKAFVSSQGGADVAEVDITKSQPLATHKINVGFHPNKSVLTPDGKSLYVANGDADTISVVDVASHRQTATIPVNRNGSKLVGANPTGLALSQDGKRLYVTNSGHNEVAVINAATRKVIGDIPTGWYPTQVLAHDGKLSITSAKGLGAGPNNGPGHPNPTDPRDTAENQYSGSMIKGLLSTVNGMTQRPWPS”: “failed”. Next, “MPFPSLPSPLARALTERNYAEPTPVQQAVLDAVPERDLLVSAQTGSGKTVAFGLAIAGTLLGEDETLPPPGAPLALVIAPTRELALQVQRELTWLYAQTGARIVPCVGGMDPRREARALEAGVHIVVGTPGRLRDHMERGRLVTEGLRAVILDEADEMLDMGFREDLEFILASTPKDRRTLLFSATLPKAIVALAESYQRDALRLAVAGETRGHADIVYRAVRVMPREVEHAVVNILRYVDAPVAIVFCNTRDGVRHLQASLTERGFSAVALSGELGQGERNAALQALRDGRARVCVATDVAARGIDLPGLDLVIHADLPHDAEVMQHRSGRTGRAGRKGTSVVLVPPAKRRRAEQMFAIAKVSPDWSGPPNADEIRILDRERMMSDPLLAEPETEEDREWEREWAEALMERCPPERLAAAFARLYRSRIPVPEEVSDPAYETSRRPDSRSGVPVGASRVGDDEPAAWFRLNLGRRDRAEPRRLLPMLTRRGQIGRGDIGSIRIFDNETTFEVRASAADDFAASFARRGPADVRVERMQGDGPAAAKAPKSPRAQRHRREATKTGRGG”: “failed”. Turning to “MPFTVTIEVSKQFETSTLPEKVFALLSDVPRSASYFPDVEKLEPLGSNAFRWIMEKNAIGGHTLKQTIYACTYRSDRVTMSVAWVPVEGEGNARVEGNWQIEFAFIQKIDRYISNLKETFAK”, the protein production result is “failed”. For “MPGIDIVIVNWNSGNQLRECLRSIGNLVGEAEPLTVTVVDNASCDGSADGLPEPSCPLRVIRNRANLGFGRASNLGAREGSADYLLFLNPDTRLHPGALSIPLGFMESETGRHVGICGVQCLDETGGVARCCARFPTAWRLVGQALGLDRLFPRWIPPHFLGEWPHDSDRDVDQVIGAFFFVRRAVFEQLGGFDERFFVYYEDLDFALRARRAGWGSRYLAGARIFHRGGGVSRQISARRLHYLTHSKLRYARKHFAGIDAFLVSAAVLLLEPLARSAYALGRGRPGEFADTWKAFGGLYASLCRPGENGRLEHHHHHH”, the protein production entry is “failed”. Turning to “MPGITFKEDANERGRQIEHWPLLKNGSIFVIADDGTRYFQEDAKHRHGHVYTHGSWLIPMNNQHPYLIFDQTQYDAFKQEESQAGQLPYPKFMTKLVSAPTIAQLAAKLGVPANNLQQTVTDFNHYTEVGRDFEFGRDPQTMRQLDDGPYYAIAALEHHHHHH”, the protein production entry is “not failed”. Next, “MPGPIMQEVAQYLASLSGKAVVINIFAGHADRSLSQTQLAELLDKLLARHPGSAVILLDHRREIRIPLPPEVVINPFNTLHHAMALIAQAELIISPDTSVVHMAAAWNKPLIAVYKDVLLNNRLWAPGYDNARQIIVKCGKVHQHRGLVDRIIAALPETLLEHHHHHH”: “failed”; “MPGPKDLDPSSSPRALLGAELRHAREKSGLSQEELGARLFVSGSFIGQLESGTRRMQPEYARLLDDVLDTEDFFRRNCTASAKSKYPEHFAQAAEAEGTAREIKEYASMLIPGLLQTPAYARAVCRAYQPTAPDDAIEELVTARMERARMLADPTGPVLWAVVDESALRRSTGGPGVMAEALRHLAHLMRENRVIVQVLPFEAGAHPAMQGCVKLMDFADAPSLVYLEGVGTGRVDDDPATVGRYRFYYELLMVAALSTTKSLSLIEKLAQNYAHGDHP”: “failed”; “MPGPSRKAAAWLPILVILVAMTSIQSGASLAKSLFPVVGAPGVTALRLALGTLILVVVFKPWRLRFSPAQRVPLLLYGLALGAMNYLFYLSLQRIPLGVAVALEFTGPLAVALFGSRRPLDFVWVALAILGLWYLLPLGQNVAQVDLTGALFALGAGACWAVYILTGQRAGEEHGPATVAMGSLIASLVFVPLGMAQATDTLWQWSLLPLGLGIAILSTALPYSLEMMALTRLPTRTFGTLMSLEPALAALSGMIFLGETLKLSQTLALGAIIIASMGATLTMQRQSKVEQVDIN”: “failed”.

For the origin of these results see a protein production outcome set (Wang et al. 2014).
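Further: failed if final PepcDB status was selected cloned or expressed and not failed if soluble or beyond.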
